# Assay results reported in the DeepSol protein solubility set.
# Test: soluble on expression in E. coli; label from the status in PepcDB or PDB records
row,Sequence,soluble on expression in E. coli
1,MGLNDNKAGMEGLDKEKINKIIMEATKGSRFYGNELKKEKQVNQRIENMMQQKAQITSQQLRKAQLQVDRFAMELEQSRNLSNTIVHIDMDAFYAAVEMRDNPELKDKPIAVGSMSMLSTSNYHARRFGVRAAMPGFIAKRLCPQLIIVPPNFDKYRAVSKEVKEILADYDPNFMAMSLDEAYLNITKHLEERQNWPEDKRRYFIKMGSSVENDNPGKEVNKLSEHERSISPLLFEESPSDVQPPGDPFQVNFEEQNNPQILQNSVVFGTSAQEVVKEIRFRIEQKTTLTASAGIAPNTMLAKVCSDKNKPNGQYQILPNRQAVMDFIKDLPIRKVSGIGKVTEKMLKALGIITCTELYQQRALLSLLFSETSWHYFLHISLGLGSTHLTRDGERKSMSVERTFSEINKAEEQYSLCQELCSELAQDLQKERLKGRTVTIKLKNVNFEVKTRASTVSSVVSTAEEIFAIAKELLKTEIDADFPHPLRLRLMGVRISSFPNEEDRKHQQ,soluble
2,MIPFDYERATDVDSAVATVTGDPRASFLAGGTNLVDHMKLGVARPHLLVDVSRLPLGDVVELPDGGLRIGAAVRNSDLAAHDVVRARYPMLSRALLSGASGQLRNLATTAGNLLQRTRCVYFQDVTTPCNKREPGTGCSAIGGYVRYHAILGASEHCVAVHPSDMAVAMTALDGVVVVRGADGERRIPLSEFYRLPGDRPDRDTVLAHGDLVTAVELPPPPSGNRSAYRKVRDRASFAFAVVSVAAELTIGDTSITSARVALGGVAHRPWRATLAEEVLVGSPPTEATYTEAAAAELAAAQPLPGNEFKVALTRRVLASVLRSLAEEARR,soluble
3,MDLSNRTVLIVGGTSGIGRELARRFAAAGSTVAVGGRSPEALSELAGEGFGTISIDVTDSASVASARDAVLARYPELDTVVTMPGIMLLEDLRDPAHFEAAATTIDTNLVGTIRVIDAFTPHLVRRGAGTFITVTSGIAFLPFPPMPTYAASKAAVHAYSEALRAQLDGTGVSVVELVPPAVATAGQEKVNPHALPLDDFATEVVQLLSEDPTPREILVKAALMHRWAERDGTYDDLVAQRSQALAMLPSREG,not soluble
4,MDNEMNYGSDYKFIPATSIESGHGIEVLRDLFCYTIQIVNICFVGNPETNDFVLVDAGMPKCANEIISIAKDRFGTNSRPKAIILTHGHFDHVGGIIELIKHWDVHVYAHQMEIPFLTGQQSYPEPDPTVEGGMVAKMSPLFPNEPIDLGNNVKALPTDGTVPHMPEFRWIHTPGHTPGHISLFREKDRTLIAGDAFVTVKQEYLYKVITQEQEISGPPRYLTTDWKAAKESVLKLEKLKPLTAVTGHGIPMSGELLSTSLKTLVQEFDKIAVPDYGKYIDKKMHLEHHHHHH,soluble
5,MAKRFTLKDAEELYLVPHWSGGFFRVGEKGDLEVTPLGPKGPAASLLEIVEALRDEGRPLPLVLRFPQILEARVRDLNEAFLEAMAKYGYQGTYRGVYPVKVNQRRLVLETVARAGRPYHLGLEAGSKPELALILAQDLSEEALITTNGFKDDDFVRLALMGRKLGRNVVITLEKFAELFRVLRLSKELGVKPLLGIRYKLKAKGAGQWEASGGENAKFGLTTPEIVRAVEVLQEEGLLDALVMLHAHIGSQVTDIRRIKAAVREAAQTYVQLRKLGAPLRYLNLGGGLAVDYDGSKTNFYASANYTLSEYAENLVYVTKEVVEAQGEPHPILVTESGRAITAYHEVLVLQVIDVIAPPGEARPSPPPPEAHPLVKELWESLQSLSPKNFQEVYHDAFADKETLQTLYDLGLVSLRDRALAEEIFYHIARRVQTIAQNLPYVPDELEDLEKLLADKLVCNFSVFQSLPDAWAIHQLFPVVPLSRLLEPPTRRATLVDISCDSDGKMDRFIDLHDVRQTLPVHPVRPGEPYYLGVFLVGAYQDVLGSNHNLFGQVGEAHVRVEEEGFAIERFVGGETAERVIEKMGFTARELMLGVERLVRQSRLSPVEKGAFLERYARELQGYTYLED,soluble
6,MTISLRRTGILKFGIGLVALTIAASVQAKTLVYCSEGSPEGFNPQLFTSGTTYDASSVPIYNRLVEFKIGTTEIEPSLAERWEVSEDGKTYTFYLRKGVKWQDNKDFKPTRDFNADDVIYSFMRQKDDKNPYHKVSGGSYEYFQGMGMGDLITNVVKVDDNTVRFELTRPESPFLADLAMDFASILSAEYADNMLKAGTPEKVDLNPIGTGPFQLQQYQKDSRILYKAFPGFWGTKPKIDRLVFSITPDASVRYAKLQKNECQIMPYPNPADIARMKEDKTINLMEQPGLNVGYLSFNIEKKPLDNLKVRQALTMAVNKDAIIDAVYQGAGQAAKNLIPPTMWGYNDDVKDYAYDPAKAKELLKEAGLPDGFSIDLWAMPVQRPYNPNARRMAEMIQSDWAKIGVKAKIVTYEWGEYLKRAKDGEHETVMMGWTGDNGDPDNFFATLFSCDAAKQGSNYSKWCYKPFEDLIQPARAEADHDKRVALYKQAQVVMNEQAPALIIAHSTVYEPVRKEVKGYVVDPLGKHHFDNVSLD,not soluble
7,MIQHLSSDTVVIGGGVVGLTIALTVARRHRSVILLDPEEPGSGASYGNAGTIADYAVLPVGTPDVLRQLPSLMFDRNSPLAIRHMALPSLAPWLARFLRQSLPAPARRNAQAIAALLGSATRSWEDLAVEVEGTALLNRRGCLYAYETPQAARAAETDMTFRRTLGVTVELLSAAEFAAMEPSLPPMAGAAYFPKAIFLSDPGRMVALIAEAARKAGVQIVKARATGLERRVDGVIVSGRALQIHGRRAVIAAGAHSRALALCAGDRVPLDTERGYHVEWDMAQPPLTRPTCPTARGFYLCPMAGRLRVAGTVELGGLTARPSPHRIARLVAGARAIFPHLPEPTRSWMGFRPSMPDSLPVIGPSAAGPEILHAYGHGHIGLTLAPITARIVADLLDAKTPELDIAPYLPTRFLEHHHHHH,not soluble
8,SSGHIEGRHMNKQATEILNEYFYSHLSNPYPSEEAKEELAKKCGITVSQVSNWFGNKRIRYKKN,soluble
9,MSLAFVCLAIGCLYTFLISTTFGCTSSSDTEIKVNPPQDFEIVDPGYLGYMYLQWQPPLSLDHFKECTVEYELKYRNIGSETWKTIITKNLHYKDGFDLNKGIEAKIHTMLPWQCTNGSEVQSSWAETTYWISPQGIPETKVQDMDCVYYNWQYLLCSWKPGIGVLLDTNYNLFYWYEGLDHALQCVDYIKADGQNIGCRFPYLEASDYKDFYICVNGSSENKPIRSSYFTFQLQNIVKPLPPVYLTFTRESSCEIKMKWSIPLGPIPARCFDYEIEIREDDTTLVTATVENETYTLKTTNETRQLCFVVRSKVNIYCSDDGIWSEWSDKQCWEGEDLSKKTEGHHHHHH,not soluble
10,MHPVILFDGDCLFCHASAHWIAARDRQAVFRFAAQQSIVGQALLAKQEMSAEDSVVLIENGCCYVKSEAVLRIGRRLAWPWNWLAAAGFLIPRLLRDHMYDAIANRRHRLVPKRDHCQLPSPELRARFLDELPQ,not soluble
11,MDTSLPSAILNNMVTATLILDDGLAIRYANPAAELLFSQSAKRIVEQSLSQLIQHASLDLALLTQPLQSGQSITDSDVTFVVDGRPLMLEVTVSPITWQRQLMLLVEMRKIDQQRRLTQELNQHAQQQAAKLLVRGLAHEIKNPLGGLRGAAQLLEKMLPDPSLTEYTHIIIEQADRLRALVDRLLGPQKPGK,not soluble
12,MSLNPSKKKNNFNMQDPFAWQKINKQIRDANASQLDVLAKEFDTQETLPIYAYILERKNNFKKHYFIMPYYDNIKDYNKTRQALILAIARQESRFIPTAISVSYALGMMQFMPFLANHIGEKELKIPNFDQDFMFKPEIAYYFGNYHLNYLESRLKSPLFVAYAYNGGIGFTNRMLARNDMFKTGKFEPFLSMELVPYQESRIYGKKVLANYIVYRHLLNDSIKISDIFENLIQNKANDLNKEGHHHHHH,not soluble
13,NGFQKEIRGQLLNVAPHAEIGYIDNTDTDWRNLLRFTENRKGILAAAPYVSNQALLANAGEIRGVQMRGILPSEERKVVEYGDKMPAGKFEDLIPGEFDIILGVGLAEALGAEVGNKVTVITPEGNVTPAGVVPRLKQFTVVGLVKTGVYEVDNSLAMTHIQDARVLYRLDKEVAGLRLKLADPQNAPALTATLIPEAQRDAVWVRDWTYSNRSYFEAVELEKR,soluble
14,MGSDKIHHHHHHMSKANFPTDPALTAIAIAYRNRRMIADEVLPRTPVAKQEFTYLHYNLGEGFTVPNARVGRTSRPNQVEFGATQLTSSTEDFALDAPVPLVDIANKPTNYNPKGRATEQTTNLIELGREVRTANLVFNKKSYANGLTKTLSGNNQWSHDDSKPIADLLSALDTPVMRPNIMVLGQKAATALRTNKSIIKAYNGSLGDEGLVPLEYLKELFELEDIYVGQALINTVNQAKKAVLQQAWGNHCALIYRDRLADTNGGTTFGLTAQFGSREVRDIFDENMGMRGGYNVRVGESVKELITAPDLGFFLENVIA,not soluble
15,MEFKEYKGKNVDEAITNACIDLGIEAAKLEYEVIEKGSNGFLGIGSKPAIIKAKKNQSVEDIAREFLNKVFTAMELTVKIDIKIVENEKENIVNINIIGEDMGILIGKRGQTLDSLQYLVSLVINKECEKFNRVKLDTENYRERRKATLENLARNISLKVKRIKKPVALEPMNPYERRIIHSALQNDKFCTTKSEGDEPYRHVVVMLKKDAR,not soluble
16,MSLKIKEITIWKEDLALTRPYTIAYETISAVENVFVLLETDNGITGIGAGSPAEDVTGETITATETALSLKLAPILQGKDIRSCFSLLKELNTALADTPAALAAADIALHDLAAKTMGLPLVDLLGRVHDRLPTSITIGIMPVKETLAEAEEYLGRGFSILKIKTGLNVEEDIERIIRLNETFKSKICMRVDANQGYEVEELHHFFKKTVGLVEFIEQPLKAEHLEKMGQLPQAIRRVSAADETLLGPRDAAQMLHAPRPFGIFNIKLMKCGGIAPGLEIANMAGHADIDLMWGCMDESIVSIAGALHAAFSSRATRYLDLDGSLDLARDIVNGGFILENGWMRTTDQPGLGVKRIEGHHHHHH,soluble
17,MVAEVCSMPTASTVKKPFDLRSKMGKWCHHRFPCCRGSGKSNMGTSGDHDDSFMKMLRSKMGKCCRHCFPCCRGSGTSNVGTSGDHENSFMKMLRSKMGKWCCHCFPCCRGSSKSNVGAWGDYDHSAFMEPRYHVRREDLDKLHRAAWWGKVPRKDLIVMLRDTDMNKRDKEKRTALHLASANGNSEVVQLLLDRRCQLNVLDNKKRTALIKAVQCQEDECVLMLLEHGADRNIPDEYGNTALHYAIYNEDKLMAKALLLYGADIESKNKV,not soluble
18,MQIYLSTLTELDYDKSLNSIEESFDDNPETSWQARAKVKHLRKSPCYNFELEVIAKNENNDVVGHVLLIEVEINSDDKTYYGLAIASLSVHPELRGQKLGRGLVQAVEERAKAQEYSTVVVDHCFDYFEKLGYQNAAEHDIKLEFGDAPLLVKYLWDNLTDAPHGIVKFPEHFY,not soluble
19,MIVAFCLYKYFPFGGLQRDFMRIASTVAARGHHVRVYTQSWEGDCPKAFELIQVPVKSHTNHGRNAEYYAWVQNHLKEHPADRVVGFNKMPGLDVYFAADVCYAEKVAQEKGFLYRLTSRYRHYAAFERATFEQGKSTKLMMLTDKQIADFQKHYQTEPERFQILPPGIYPDRKYSEQIPNSREIYRQKNGIKEQQNLLLQVGSDFGRKGVDRSIEALASLPESLRHNTLLFVVGQDKPRKFEALAEKLGVRSNVHFFSGRNDVSELMAAADLLLHPAYQEAAGIVLLEAITAGLPVLTTAVCGYAHYIADANCGTVIAEPFSQEQLNEVLRKALTQSPLRMAWAENARHYADTQDLYSLPEKAADIITGGLDG,soluble
20,MKQLSVSLAILCAVATSEAFAADELQQRAQGLFKPVPAKAPTLKGNPASPVKVELGKMLYFDPRLSASHLISCNTCHNVGLGGGDLQATSTGHGWQKGPRNAPTVLNSVFNTAQFWDGRAKDLAEQAKGPVQASVEMNNTPDQVVKTLNSIPDYVALFKKAFPGEKDPVTFDNMAKAIEVFEATLITPDSPFDQYLKGKKKALDGKQTAGLKLFLDKGCVACHGGLNLGGTGYFPFGVVEKPAENILPLGDKGRFAVTNTAKDEYVFRAPSLRNVAITYPYFHSGVVWSLKEAVAVMGSAQFGIKLSDDESEAIAAFLGSLTGKQPKVVYPIMPASTDATPRPRL,soluble
